Drawing on patent US20260015399A1 (Boehringer Ingelheim, published 2026), this text covers Ki for six molecules.

*1 amine or outer side, *2 acyl side, *3 side chain or, on linkers, in order; H or OH if unused. Side-chain parts run from the residue outwards. The star is where a group is joined. C18 diacid = O=C(O)CCCCCCCCCCCCCCCCC(=O)*; γGlu = O=C(O)[C@H](CCC(=O)[*:2])N[*:1]; Isovaleryl = CC(C)CC(=O)*; Ahx = NCCCCCC(=O)O

Sequences and labels used below:
T1: human NPY2 receptor (human, UniProt P49146 1-381)
T1 construct: whole, on cells; also called hNPY2-R; hNPY2R
T1 sequence (looked up): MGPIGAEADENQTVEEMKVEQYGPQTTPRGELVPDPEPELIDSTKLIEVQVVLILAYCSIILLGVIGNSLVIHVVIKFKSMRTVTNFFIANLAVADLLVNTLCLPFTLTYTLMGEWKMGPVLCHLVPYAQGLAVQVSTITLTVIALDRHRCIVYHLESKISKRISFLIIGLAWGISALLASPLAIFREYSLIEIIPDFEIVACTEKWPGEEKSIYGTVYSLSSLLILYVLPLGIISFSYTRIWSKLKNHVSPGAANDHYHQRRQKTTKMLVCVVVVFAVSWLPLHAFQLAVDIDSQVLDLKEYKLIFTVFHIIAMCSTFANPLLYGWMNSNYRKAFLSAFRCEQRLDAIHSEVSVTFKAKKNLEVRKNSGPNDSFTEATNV

B1: Compound 119 (peptide)
peptide: Isovaleryl-APEK([Ahx-γGlu-C18 diacid])PEEDATPEESQRYYVSLRHYYNWLTRQRY-NH2
SMILES: CC(C)CC(=O)N[C@@H](C)C(=O)N1CCC[C@H]1C(=O)N[C@@H](CCC(=O)O)C(=O)N[C@@H](CCCCNC(=O)CCCCCNC(=O)CC[C@H](NC(=O)CCCCCCCCCCCCCCCCC(=O)O)C(=O)O)C(=O)N1CCC[C@H]1C(=O)N[C@@H](CCC(=O)O)C(=O)N[C@@H](CCC(=O)O)C(=O)N[C@@H](CC(=O)O)C(=O)N[C@@H](C)C(=O)N[C@H](C(=O)N1CCC[C@H]1C(=O)N[C@@H](CCC(=O)O)C(=O)N[C@@H](CCC(=O)O)C(=O)N[C@@H](CO)C(=O)N[C@@H](CCC(N)=O)C(=O)N[C@@H](CCCNC(=N)N)C(=O)N[C@@H](Cc1ccc(O)cc1)C(=O)N[C@@H](Cc1ccc(O)cc1)C(=O)N[C@H](C(=O)N[C@@H](CO)C(=O)N[C@@H](CC(C)C)C(=O)N[C@@H](CCCNC(=N)N)C(=O)N[C@@H](Cc1c[nH]cn1)C(=O)N[C@@H](Cc1ccc(O)cc1)C(=O)N[C@@H](Cc1ccc(O)cc1)C(=O)N[C@@H](CC(N)=O)C(=O)N[C@@H](Cc1c[nH]c2ccccc12)C(=O)N[C@@H](CC(C)C)C(=O)N[C@H](C(=O)N[C@@H](CCCNC(=N)N)C(=O)N[C@@H](CCC(N)=O)C(=O)N[C@@H](CCCNC(=N)N)C(=O)N[C@@H](Cc1ccc(O)cc1)C(N)=O)[C@@H](C)O)C(C)C)[C@@H](C)O
B2: Compound 120 (peptide)
peptide: Isovaleryl-APAK([Ahx-γGlu-C18 diacid])PEEAATPEEIQRYYVALRHYYNWLTRQRY-NH2
SMILES: CC[C@H](C)[C@H](NC(=O)[C@H](CCC(=O)O)NC(=O)[C@H](CCC(=O)O)NC(=O)[C@@H]1CCCN1C(=O)[C@@H](NC(=O)[C@H](C)NC(=O)[C@H](C)NC(=O)[C@H](CCC(=O)O)NC(=O)[C@H](CCC(=O)O)NC(=O)[C@@H]1CCCN1C(=O)[C@H](CCCCNC(=O)CCCCCNC(=O)CC[C@H](NC(=O)CCCCCCCCCCCCCCCCC(=O)O)C(=O)O)NC(=O)[C@H](C)NC(=O)[C@@H]1CCCN1C(=O)[C@H](C)NC(=O)CC(C)C)[C@@H](C)O)C(=O)N[C@@H](CCC(N)=O)C(=O)N[C@@H](CCCNC(=N)N)C(=O)N[C@@H](Cc1ccc(O)cc1)C(=O)N[C@@H](Cc1ccc(O)cc1)C(=O)N[C@H](C(=O)N[C@@H](C)C(=O)N[C@@H](CC(C)C)C(=O)N[C@@H](CCCNC(=N)N)C(=O)N[C@@H](Cc1c[nH]cn1)C(=O)N[C@@H](Cc1ccc(O)cc1)C(=O)N[C@@H](Cc1ccc(O)cc1)C(=O)N[C@@H](CC(N)=O)C(=O)N[C@@H](Cc1c[nH]c2ccccc12)C(=O)N[C@@H](CC(C)C)C(=O)N[C@H](C(=O)N[C@@H](CCCNC(=N)N)C(=O)N[C@@H](CCC(N)=O)C(=O)N[C@@H](CCCNC(=N)N)C(=O)N[C@@H](Cc1ccc(O)cc1)C(N)=O)[C@@H](C)O)C(C)C
B3: Compound 121 (peptide)
peptide: Isovaleryl-APEK([Ahx-γGlu-C18 diacid])PEADASPEELQRYYVQLRHYYNWLTRQRY-NH2
SMILES: CC(C)CC(=O)N[C@@H](C)C(=O)N1CCC[C@H]1C(=O)N[C@@H](CCC(=O)O)C(=O)N[C@@H](CCCCNC(=O)CCCCCNC(=O)CC[C@H](NC(=O)CCCCCCCCCCCCCCCCC(=O)O)C(=O)O)C(=O)N1CCC[C@H]1C(=O)N[C@@H](CCC(=O)O)C(=O)N[C@@H](C)C(=O)N[C@@H](CC(=O)O)C(=O)N[C@@H](C)C(=O)N[C@@H](CO)C(=O)N1CCC[C@H]1C(=O)N[C@@H](CCC(=O)O)C(=O)N[C@@H](CCC(=O)O)C(=O)N[C@@H](CC(C)C)C(=O)N[C@@H](CCC(N)=O)C(=O)N[C@@H](CCCNC(=N)N)C(=O)N[C@@H](Cc1ccc(O)cc1)C(=O)N[C@@H](Cc1ccc(O)cc1)C(=O)N[C@H](C(=O)N[C@@H](CCC(N)=O)C(=O)N[C@@H](CC(C)C)C(=O)N[C@@H](CCCNC(=N)N)C(=O)N[C@@H](Cc1c[nH]cn1)C(=O)N[C@@H](Cc1ccc(O)cc1)C(=O)N[C@@H](Cc1ccc(O)cc1)C(=O)N[C@@H](CC(N)=O)C(=O)N[C@@H](Cc1c[nH]c2ccccc12)C(=O)N[C@@H](CC(C)C)C(=O)N[C@H](C(=O)N[C@@H](CCCNC(=N)N)C(=O)N[C@@H](CCC(N)=O)C(=O)N[C@@H](CCCNC(=N)N)C(=O)N[C@@H](Cc1ccc(O)cc1)C(N)=O)[C@@H](C)O)C(C)C
B4: Compound 124 (peptide)
peptide: Isovaleryl-APEK([Ahx-γGlu-C18 diacid])PEAAAEPEEIQRYYVSLRHYYNWLTRQRY-NH2
SMILES: CC[C@H](C)[C@H](NC(=O)[C@H](CCC(=O)O)NC(=O)[C@H](CCC(=O)O)NC(=O)[C@@H]1CCCN1C(=O)[C@H](CCC(=O)O)NC(=O)[C@H](C)NC(=O)[C@H](C)NC(=O)[C@H](C)NC(=O)[C@H](CCC(=O)O)NC(=O)[C@@H]1CCCN1C(=O)[C@H](CCCCNC(=O)CCCCCNC(=O)CC[C@H](NC(=O)CCCCCCCCCCCCCCCCC(=O)O)C(=O)O)NC(=O)[C@H](CCC(=O)O)NC(=O)[C@@H]1CCCN1C(=O)[C@H](C)NC(=O)CC(C)C)C(=O)N[C@@H](CCC(N)=O)C(=O)N[C@@H](CCCNC(=N)N)C(=O)N[C@@H](Cc1ccc(O)cc1)C(=O)N[C@@H](Cc1ccc(O)cc1)C(=O)N[C@H](C(=O)N[C@@H](CO)C(=O)N[C@@H](CC(C)C)C(=O)N[C@@H](CCCNC(=N)N)C(=O)N[C@@H](Cc1c[nH]cn1)C(=O)N[C@@H](Cc1ccc(O)cc1)C(=O)N[C@@H](Cc1ccc(O)cc1)C(=O)N[C@@H](CC(N)=O)C(=O)N[C@@H](Cc1c[nH]c2ccccc12)C(=O)N[C@@H](CC(C)C)C(=O)N[C@H](C(=O)N[C@@H](CCCNC(=N)N)C(=O)N[C@@H](CCC(N)=O)C(=O)N[C@@H](CCCNC(=N)N)C(=O)N[C@@H](Cc1ccc(O)cc1)C(N)=O)[C@@H](C)O)C(C)C
B5: Compound 123 (peptide)
peptide: Isovaleryl-APEK([Ahx-γGlu-C18 diacid])PEEDAAPEELQKYYVSLRHYYNWLTRQRY-NH2
SMILES: CC(C)CC(=O)N[C@@H](C)C(=O)N1CCC[C@H]1C(=O)N[C@@H](CCC(=O)O)C(=O)N[C@@H](CCCCNC(=O)CCCCCNC(=O)CC[C@H](NC(=O)CCCCCCCCCCCCCCCCC(=O)O)C(=O)O)C(=O)N1CCC[C@H]1C(=O)N[C@@H](CCC(=O)O)C(=O)N[C@@H](CCC(=O)O)C(=O)N[C@@H](CC(=O)O)C(=O)N[C@@H](C)C(=O)N[C@@H](C)C(=O)N1CCC[C@H]1C(=O)N[C@@H](CCC(=O)O)C(=O)N[C@@H](CCC(=O)O)C(=O)N[C@@H](CC(C)C)C(=O)N[C@@H](CCC(N)=O)C(=O)N[C@@H](CCCCN)C(=O)N[C@@H](Cc1ccc(O)cc1)C(=O)N[C@@H](Cc1ccc(O)cc1)C(=O)N[C@H](C(=O)N[C@@H](CO)C(=O)N[C@@H](CC(C)C)C(=O)N[C@@H](CCCNC(=N)N)C(=O)N[C@@H](Cc1c[nH]cn1)C(=O)N[C@@H](Cc1ccc(O)cc1)C(=O)N[C@@H](Cc1ccc(O)cc1)C(=O)N[C@@H](CC(N)=O)C(=O)N[C@@H](Cc1c[nH]c2ccccc12)C(=O)N[C@@H](CC(C)C)C(=O)N[C@H](C(=O)N[C@@H](CCCNC(=N)N)C(=O)N[C@@H](CCC(N)=O)C(=O)N[C@@H](CCCNC(=N)N)C(=O)N[C@@H](Cc1ccc(O)cc1)C(N)=O)[C@@H](C)O)C(C)C
B6: Compound 125 (peptide)
peptide: Isovaleryl-APEK([Ahx-γGlu-C18 diacid])PEEDASPEELQRYYVELRHYYNWLTRQRY-NH2
SMILES: CC(C)CC(=O)N[C@@H](C)C(=O)N1CCC[C@H]1C(=O)N[C@@H](CCC(=O)O)C(=O)N[C@@H](CCCCNC(=O)CCCCCNC(=O)CC[C@H](NC(=O)CCCCCCCCCCCCCCCCC(=O)O)C(=O)O)C(=O)N1CCC[C@H]1C(=O)N[C@@H](CCC(=O)O)C(=O)N[C@@H](CCC(=O)O)C(=O)N[C@@H](CC(=O)O)C(=O)N[C@@H](C)C(=O)N[C@@H](CO)C(=O)N1CCC[C@H]1C(=O)N[C@@H](CCC(=O)O)C(=O)N[C@@H](CCC(=O)O)C(=O)N[C@@H](CC(C)C)C(=O)N[C@@H](CCC(N)=O)C(=O)N[C@@H](CCCNC(=N)N)C(=O)N[C@@H](Cc1ccc(O)cc1)C(=O)N[C@@H](Cc1ccc(O)cc1)C(=O)N[C@H](C(=O)N[C@@H](CCC(=O)O)C(=O)N[C@@H](CC(C)C)C(=O)N[C@@H](CCCNC(=N)N)C(=O)N[C@@H](Cc1c[nH]cn1)C(=O)N[C@@H](Cc1ccc(O)cc1)C(=O)N[C@@H](Cc1ccc(O)cc1)C(=O)N[C@@H](CC(N)=O)C(=O)N[C@@H](Cc1c[nH]c2ccccc12)C(=O)N[C@@H](CC(C)C)C(=O)N[C@H](C(=O)N[C@@H](CCCNC(=N)N)C(=O)N[C@@H](CCC(N)=O)C(=O)N[C@@H](CCCNC(=N)N)C(=O)N[C@@H](Cc1ccc(O)cc1)C(N)=O)[C@@H](C)O)C(C)C

The assay has as its target T1, human NPY2 receptor. The experiment in a line: RLB: displacement of 125I-PYY(1-36) from hNPY2R membranes.
The molecule B1 had a Ki of 5.73 nM.

With B2, the Ki stood at 1.49 nM.

For the molecule B3, the affinity, expressed as Ki, was 1.45 nM. The Ki values of the last two molecules are within 1.5-fold of each other.

For B4, the Ki came out at 3.07 nM.

B5 gave a Ki of 3.65 nM.

Molecule B6 registered a Ki of 3.37 nM.
